Measurements reported in publication PMC3057930 (Proteins, 2010).
Where two headings read alike, the source gives them in different places. No end group written: not given here. *: point of attachment. FITC = O=C1OC2(c3ccc(O)cc3Oc3cc(O)ccc32)c2ccc(NC(=S)*)cc21

What was measured:
Experiment in all cases: fluorescence polarisation
[1] = biological target: T1, Paramecium calmodulin N-domain fragment (CaM_(1-80)) (Paramecium, UniProt P07463 2-81)
[2] = biological target: T2, Paramecium calmodulin C-domain fragment (CaM_(76-148)) (Paramecium, UniProt P07463 77-149)
[3] = biological target: T3, Paramecium calmodulin, full-length (CaM_(1-148)) (Paramecium, UniProt P07463 1-149)
[4] = biological target: T1, Paramecium calmodulin N-domain fragment …; remark: listed apart in the source
[5] = biological target: T2, Paramecium calmodulin C-domain fragment …; remark: listed apart in the source
[6] = biological target: T3, Paramecium calmodulin, full-length …; remark: listed apart in the source

{FITC}-ARKEIIRNKIRAIGKMARVFSVLR
Kd [1]: 600 µM
Kd [2]: 44.1 µM
Kd [3]: 25 µM
Kd [4]: 7.06 µM
Kd [5]: 0.96 µM
Kd [6]: ≤ 0.001 µM
